Ends that are not written are not given here.

The target of assay [1] is Short NRP2A peptide (biotinylated) (human, biotin-conjugated, site not stated). Description: BLI, peptide on sensor. On the technique in general: BLI is a label-free optical method that tracks binding on a fibre tip over time.
In assay [2] the target is T1, NRP2a_scan 1 peptide (biotinylated) (human, also: biotin-conjugated, site not given here).
T1 peptide: VDIPEIHEREGY
Description: BLI, peptide on sensor.

Assay [3] addresses T2, NRP2a_scan 2 peptide (biotinylated) (human, also: biotin-conjugated, site not given here).
T2 peptide: PEIHEREGYEDE
Description: BLI, peptide on sensor.

The target of assay [4] is T3, NRP2a_scan 3 peptide (biotinylated) (human, also: biotin-conjugated, site not given here).
T3 peptide: HEREGYEDEIDD
Description: BLI, peptide on sensor.

Assay [5] has as its target T4, NRP2a_scan 4 peptide (biotinylated) (human, also: biotin-conjugated, site not given here).
T4 peptide: EGYEDEIDDEYE
Briefly: BLI, peptide on sensor.

Assay [6] deals with T5, NRP2a_scan 5 peptide (biotinylated) (human, also: biotin-conjugated, site not given here).
T5 peptide: EDEIDDEYEVDW
Briefly: BLI, peptide on sensor.

Assay [7] addresses T6, NRP2a_scan 6 peptide (biotinylated) (human, also: biotin-conjugated, site not given here).
T6 peptide: IDDEYEVDWSNS
Briefly: BLI, peptide on sensor.

Assay [8] has as its target T7, NRP2a_scan 7 peptide (biotinylated) (human, also: biotin-conjugated, site not given here).
T7 peptide: EYEVDWSNSSSA
Description: BLI, peptide on sensor.

In assay [9] the target is T8, Mid-NRP2A peptide (biotinylated) (human, biotin-conjugated, site not stated).
T8 peptide: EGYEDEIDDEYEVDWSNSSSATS
Briefly: BLI, peptide on sensor.

Assay [10] has as its target T9, Mid-mNRP2A peptide (biotinylated) (mouse, biotin-conjugated, site not stated).
T9 peptide: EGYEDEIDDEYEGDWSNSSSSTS
Briefly: BLI, peptide on sensor.

Assay [11] has as its target T10, mNRP2A peptide (biotinylated) (mouse, biotin-conjugated, site not stated).
T10 construct: also called mouse NRP2 isoform a peptide
Description: BLI, peptide on sensor, 50 nM antibody.

Assay [12] concerns the target T11, mNRP2b peptide (biotinylated) (mouse, biotin-conjugated, site not stated). Description: BLI, peptide on sensor, 50 nM antibody.
Assay [13] concerns the target T12, NRP2A peptide (biotinylated) (human, biotin-conjugated, site not stated).
T12 construct: also called NPR2A; NRP2a specific peptide
Briefly: BLI, isoform peptide on sensor, 50 nM antibody.

Assay [14] concerns the target T13, human NRP2a v2 expressed on Expi293F cells (human, UniProt O60462 23-931).
T13 construct: cDNA Origene RCC220706; also called NRP2 v2
Briefly: flow cytometry, Expi293F cells transfected with the target, fluorescent anti-mouse secondary; MFI signal relative to mock-transfected cells. On the technique in general: Flow cytometry measures light scatter and fluorescence of single cells or particles in a stream.
Description: (§1) Signal to noise was calculated as the staining intensity of transfected cells compared to an un-transfected ‘mock’ population.

In another assay the target is T14, NRP2v3.
T14 construct: not the NanoLuc-tagged construct m33; also called human NRP2 v3 expressed on Expi293F cells; NRP2a v3
T14 chain: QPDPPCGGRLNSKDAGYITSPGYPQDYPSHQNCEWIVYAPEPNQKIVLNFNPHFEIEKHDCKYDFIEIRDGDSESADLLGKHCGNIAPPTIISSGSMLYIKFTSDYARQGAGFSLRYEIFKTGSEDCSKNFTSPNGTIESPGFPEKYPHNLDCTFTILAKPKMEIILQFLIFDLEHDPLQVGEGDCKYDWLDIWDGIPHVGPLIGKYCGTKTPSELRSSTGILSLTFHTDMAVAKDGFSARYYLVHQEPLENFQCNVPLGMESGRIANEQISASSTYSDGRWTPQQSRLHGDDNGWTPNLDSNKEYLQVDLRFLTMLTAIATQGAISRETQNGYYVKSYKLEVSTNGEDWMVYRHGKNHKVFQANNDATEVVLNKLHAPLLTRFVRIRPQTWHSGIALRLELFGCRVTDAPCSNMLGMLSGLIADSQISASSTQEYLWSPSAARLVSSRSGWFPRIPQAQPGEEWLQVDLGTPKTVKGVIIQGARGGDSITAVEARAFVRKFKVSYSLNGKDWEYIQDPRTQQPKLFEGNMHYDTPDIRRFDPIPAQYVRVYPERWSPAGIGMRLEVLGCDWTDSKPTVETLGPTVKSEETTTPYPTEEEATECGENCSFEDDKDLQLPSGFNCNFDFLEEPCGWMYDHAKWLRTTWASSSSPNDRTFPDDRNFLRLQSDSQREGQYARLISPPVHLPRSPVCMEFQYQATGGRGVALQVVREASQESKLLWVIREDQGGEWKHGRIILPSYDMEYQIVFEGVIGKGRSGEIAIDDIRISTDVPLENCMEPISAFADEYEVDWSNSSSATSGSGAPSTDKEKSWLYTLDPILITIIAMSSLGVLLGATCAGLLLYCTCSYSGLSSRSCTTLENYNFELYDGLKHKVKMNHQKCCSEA
Described as above.

For assay [15], the target named is T15, NRP2b peptide (biotinylated) (human, biotin-conjugated, site not stated).
T15 construct: also called NRP2b isoform specific peptide
T15 peptide: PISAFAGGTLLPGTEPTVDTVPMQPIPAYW
Briefly: BLI, peptide on sensor.

For assay [16], the target named is T11, mNRP2b peptide (biotinylated). Description: BLI, peptide on sensor.
Description: Biolayer interferometry (BLI) experiments were carried out on an Octet RED96e instrument (Sartorius) to further characterize antibody affinities to the NRP2 peptides screened above. Antibodies were epitope mapped using peptides that span the NRP2a isoform specific region; antibodies were also tested for reactivity to an NRP2b isoform specific peptide and cross-reactivity to mNRP2a and mNRP2b peptides (see Table E2 for peptide sequences).
Antibodies and peptides were diluted in 1×PBS, 0.1% BSA, 0.02% Tween 20, pH 7.4. […] The biosensors were then dipped into 50 nM solutions of each antibody and read for 300s. The biosensors were regenerated in 10 mM glycine, pH 1.5 in between cycles of different antibodies.
The target in assay [17] is T16, human NRP2b expressed on Expi293F cells (human).
T16 construct: also called full length NRP2b
T16 chain: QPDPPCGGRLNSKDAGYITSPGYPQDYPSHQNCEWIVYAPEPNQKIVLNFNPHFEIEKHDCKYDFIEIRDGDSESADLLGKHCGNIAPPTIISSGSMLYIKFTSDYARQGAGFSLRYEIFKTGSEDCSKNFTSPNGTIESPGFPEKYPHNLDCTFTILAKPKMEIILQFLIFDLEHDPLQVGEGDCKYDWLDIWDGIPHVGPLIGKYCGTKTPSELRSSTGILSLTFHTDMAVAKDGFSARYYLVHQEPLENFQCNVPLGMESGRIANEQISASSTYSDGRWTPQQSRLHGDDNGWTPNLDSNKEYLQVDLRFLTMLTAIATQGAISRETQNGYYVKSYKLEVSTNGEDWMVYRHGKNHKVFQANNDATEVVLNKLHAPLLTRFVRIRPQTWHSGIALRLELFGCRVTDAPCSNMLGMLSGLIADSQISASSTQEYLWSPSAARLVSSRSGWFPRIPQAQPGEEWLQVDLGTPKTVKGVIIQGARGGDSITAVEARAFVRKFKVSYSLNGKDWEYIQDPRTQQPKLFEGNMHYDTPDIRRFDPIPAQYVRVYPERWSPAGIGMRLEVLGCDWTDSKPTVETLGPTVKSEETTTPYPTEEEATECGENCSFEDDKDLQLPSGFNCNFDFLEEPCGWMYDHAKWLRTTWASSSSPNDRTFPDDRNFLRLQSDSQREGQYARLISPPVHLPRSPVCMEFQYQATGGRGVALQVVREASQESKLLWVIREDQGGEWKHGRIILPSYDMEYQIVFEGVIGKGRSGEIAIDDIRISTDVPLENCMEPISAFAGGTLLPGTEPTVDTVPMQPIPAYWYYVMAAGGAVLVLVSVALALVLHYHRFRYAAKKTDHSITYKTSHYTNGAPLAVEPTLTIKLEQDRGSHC
Briefly: flow cytometry, Expi293F cells transfected with the target, fluorescent anti-mouse secondary; MFI signal relative to mock-transfected cells.
Description: as §1

Assay [18] deals with T17, Human NRP2a v1 (931aa) with C-terminal split NanoLuc tag, expressed in Expi293F cells (human, UniProt O60462 23-931).
T17 construct: Made by mutagenesis from the isoform 2 / isoform 5 vectors; not shown: vector-encoded spacer and split NanoLuc fragment (Promega pBiT vector)
Briefly: NanoBiT split-luciferase complementation of tagged NRP2 and CCR7 in Expi293F cells; 100 nM CCL21 or CCL19 added; normalized to wells without ligand.

Assay [19] addresses T18, Human NRP2a v2 (926aa) in pBiT2.1-C with C-terminal split NanoLuc tag, expressed in Expi293 cells (human, UniProt O60462 23-931).
T18 construct: cDNA Origene RCC220706, isoform 2; also called pBiT2.1-C-NRP2v2 (isoform 2); NRP2 v2; not shown: vector-encoded spacer and small split NanoLuc fragment (pBiT2.1-C)
The assay is described as above.

The target in assay [20] is T18, Human NRP2a v2 (926aa) in pBiT2.1-C …. Description: NanoBiT complementation of NRP2a v2 and CCR7 truncated after aa331 in Expi293 cells; 100 nM CCL21; normalized to wells without ligand.
Description: The vectors were transfected into Expi293 cells using Expifectamine (Fisher Scientific). Approximately 16-20 hours post transfection, cells were washed, plated at 100,000 cells/well in luminometer plates, and then cell permeable luciferase substrate was added and luminescence was monitored on a GloMax96 (Promega). 100 nM ligand was added, and response to ligand was calculated with respect to a control set with no ligand.

T11 sequence (peptide, as listed by the source): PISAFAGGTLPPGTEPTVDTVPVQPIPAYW
Description for NRP2v3: as §1

B1: aNRP2-407v2 (antibody, V domains shown)
VH: EVQLQQSGPELVKPGASVTISCKASGYSFTGYYMHWVKQSHVKSLEWIGRINPYNGATSYSQNFKDKASLTIDKSSSTAYMELHSLTSEDSAVYYCAREETTAPFTYWGQGTLVTVSA
VL: DIVMSQSPSSLAVSVGEKVTMSCKSSQSLLYSSNQKNYLAWYQQKPGQSPKLLIYWASTRESGVPDRFTGSGSGTDFTLTISSVQAEDLAVYFCQHYYSYPPTFGGGTKLEIK
notes: Mouse monoclonal
Consider B1, for which the binding result in [1], in assay [2], in assay [3], in assay [4], in assay [5] and in assay [6] was “no binding (tested: 50 nM)” each time. Also, the binding result is recorded as “no binding (tested: 50 nM)” in [7]; “no binding (tested: 50 nM)” in [8]; “no binding (tested: 50 nM)” in assay [9]; “no binding (tested: 50 nM)” in assay [10]; “binds” in [11]; “binds” in assay [12]. In addition, the binding result (in assay [13]; in assay [14]; in the assay with NRP2v3) was “binds” each time.

B2: aNRP2-37v2 (antibody, V domains shown)
VH: DVKLVESGEGLVKPGGSLKLSCAASGFTFSDYALSWVRQTPEKRLEWVAYISSGGDYIYYADTVRGRFTISRDNARNTLYLQMSSLQSEDTAIYYCTRGGQDDYWGQGTTLTVSS
VL: DVVMTQTPLSLPVILGDQASISCRSSQSLVHSNGNTYLQWYLQKPGQSPKLLIYKVSNRFSGVPDRFSGSGSGTDFTLKISRVEAEDLGVYFCSQSTHVPFTFGSGTNLEIK
notes: Mouse monoclonal (captured by anti-murine kappa, detected with anti-mouse IgG)
For the molecule B2, the binding result in assay [15], in [1], in assay [2], in assay [3], in assay [4] and in assay [5] was “no binding (tested: 50 nM)” each time. Also, the binding result in assay [6] was “no binding (tested: 50 nM)”; in assay [7] it was “no binding (tested: 50 nM)”; in [8] it was “no binding (tested: 50 nM)”; in assay [9], “no binding (tested: 50 nM)”; in assay [16] it was “no binding (tested: 50 nM)”; in assay [13] it was “binds”. Moreover, the binding result in assay [14] was “binds”; in [17], “no binding”; with NRP2v3, “no binding”.

B3: CCR7, full coding sequence, in pBiT1.1-C with C-terminal split NanoLuc tag, expressed in Expi293F cells (receptor)
chain: QDEVTDDYIGDNTTVDYTLFESLCSKKDVRNFKAWFLPIMYSIICFVGLLGNGLVVLTYIYFKRLKTMTDTYLLNLAVADILFLLTLPFWAYSAAKSWVFGVHFCKLIFAIYKMSFFSGMLLLLCISIDRYVAIVQAVSAHRHRARVLLISKLSCVGIWILATVLSIPELLYSDLQRSSSEQAMRCSLITEHVEAFITIQVAQMVIGFLVPLLAMSFCYLVIIRTLLQARNFERNKAIKVIIAVVVVFIVFQLPYNGVVLAQTVANFNITSSTCELSKQLNIAYDVTYSLACVRCCVNPFLYAFIGVKFRNDLFKLFKDLGCLSQEQLRQWSSCRHIRRSSMSVEAETTTTFSP
notes: cDNA Genscript OHu24012; not shown: vector-encoded spacer and large split NanoLuc fragment (pBiT1.1-C)
As for B3, the binding result in [18] and in assay [19] was “binds” each time.

B4: CCR7 truncated after aa331 (without its C-terminal cytoplasmic sequence) in pBiT1.1-C with split NanoLuc tag, expressed in Expi293 cells (receptor)
chain: QDEVTDDYIGDNTTVDYTLFESLCSKKDVRNFKAWFLPIMYSIICFVGLLGNGLVVLTYIYFKRLKTMTDTYLLNLAVADILFLLTLPFWAYSAAKSWVFGVHFCKLIFAIYKMSFFSGMLLLLCISIDRYVAIVQAVSAHRHRARVLLISKLSCVGIWILATVLSIPELLYSDLQRSSSEQAMRCSLITEHVEAFITIQVAQMVIGFLVPLLAMSFCYLVIIRTLLQARNFERNKAIKVIIAVVVVFIVFQLPYNGVVLAQTVANFNITSSTCELSKQLNIAYDVTYSLACVRCCVNPFLYAFIGV
notes: Membrane protein on cells, cytoplasmic tail removed; not shown: vector-encoded spacer and large split NanoLuc fragment (pBiT1.1-C)
Regarding B4, in [20], the binding result is on record as “binds”.

Values taken from patent US20240417476A1 (ATYR PHARMA, published 2024).
